This passage reports Kd and EC50 results from patent publication US20090203766, “vWF aptamer formulations and methods for use” (Archemix Corp., published 2009).

The target in data set [1] is von Willebrand factor (vWF) (Homo sapiens, UniProt P04275 P04275:764-2813). Briefly: filter; text gives value as affinity of ARC1779 for vWF; PBS, 0.1 mg/ml BSA, room temperature 30 min. As to conditions: label: 5'-32P. As to the method: For binding assays, the oligonucleotide core of ARC1779 was synthesized with a 5′-terminal hydroxyl moiety instead of a 5′ hexylamine and 20 kDa PEG and subsequently 5′-end labeled with γ-³²P ATP using T4 polynucleotide kinase (New England BioLabs, Beverly, Mass.). Aptamer was incubated at room temperature for 30 minutes in PBS containing 0.1 mg/ml BSA (as a specificity control) and increasing concentrations of human VWF. Bound complexes were separated from free DNA using an acrylic mini-dot blot apparatus (Schleicher and Schuell, Keene, N.H.) and a membrane sandwich (top to bottom) of Protran BA85 0.45 μm Nitrocellulose Membrane (Schleicher and Schuell, Keene, N.H.), Hybond P Nylon Membrane (Amersham, Piscataway, N.J.), and 3mM filter paper (Whatman, Florham Park, N.J.) all pre-wet with Dulbecco's PBS. Radioactivity associated with protein:DNA complexes (nitrocellulose) and free DNA (nylon) was quantified on a Storm 860 Phosphorimager (Molecular Dynamics/Amersham, Piscataway, N.J.). Binding constants were determined by fitting the fraction of aptamer bound as a function of the concentration of vWF.
Sequence of von Willebrand factor (vWF) (P04275 764-2813, one chain of several): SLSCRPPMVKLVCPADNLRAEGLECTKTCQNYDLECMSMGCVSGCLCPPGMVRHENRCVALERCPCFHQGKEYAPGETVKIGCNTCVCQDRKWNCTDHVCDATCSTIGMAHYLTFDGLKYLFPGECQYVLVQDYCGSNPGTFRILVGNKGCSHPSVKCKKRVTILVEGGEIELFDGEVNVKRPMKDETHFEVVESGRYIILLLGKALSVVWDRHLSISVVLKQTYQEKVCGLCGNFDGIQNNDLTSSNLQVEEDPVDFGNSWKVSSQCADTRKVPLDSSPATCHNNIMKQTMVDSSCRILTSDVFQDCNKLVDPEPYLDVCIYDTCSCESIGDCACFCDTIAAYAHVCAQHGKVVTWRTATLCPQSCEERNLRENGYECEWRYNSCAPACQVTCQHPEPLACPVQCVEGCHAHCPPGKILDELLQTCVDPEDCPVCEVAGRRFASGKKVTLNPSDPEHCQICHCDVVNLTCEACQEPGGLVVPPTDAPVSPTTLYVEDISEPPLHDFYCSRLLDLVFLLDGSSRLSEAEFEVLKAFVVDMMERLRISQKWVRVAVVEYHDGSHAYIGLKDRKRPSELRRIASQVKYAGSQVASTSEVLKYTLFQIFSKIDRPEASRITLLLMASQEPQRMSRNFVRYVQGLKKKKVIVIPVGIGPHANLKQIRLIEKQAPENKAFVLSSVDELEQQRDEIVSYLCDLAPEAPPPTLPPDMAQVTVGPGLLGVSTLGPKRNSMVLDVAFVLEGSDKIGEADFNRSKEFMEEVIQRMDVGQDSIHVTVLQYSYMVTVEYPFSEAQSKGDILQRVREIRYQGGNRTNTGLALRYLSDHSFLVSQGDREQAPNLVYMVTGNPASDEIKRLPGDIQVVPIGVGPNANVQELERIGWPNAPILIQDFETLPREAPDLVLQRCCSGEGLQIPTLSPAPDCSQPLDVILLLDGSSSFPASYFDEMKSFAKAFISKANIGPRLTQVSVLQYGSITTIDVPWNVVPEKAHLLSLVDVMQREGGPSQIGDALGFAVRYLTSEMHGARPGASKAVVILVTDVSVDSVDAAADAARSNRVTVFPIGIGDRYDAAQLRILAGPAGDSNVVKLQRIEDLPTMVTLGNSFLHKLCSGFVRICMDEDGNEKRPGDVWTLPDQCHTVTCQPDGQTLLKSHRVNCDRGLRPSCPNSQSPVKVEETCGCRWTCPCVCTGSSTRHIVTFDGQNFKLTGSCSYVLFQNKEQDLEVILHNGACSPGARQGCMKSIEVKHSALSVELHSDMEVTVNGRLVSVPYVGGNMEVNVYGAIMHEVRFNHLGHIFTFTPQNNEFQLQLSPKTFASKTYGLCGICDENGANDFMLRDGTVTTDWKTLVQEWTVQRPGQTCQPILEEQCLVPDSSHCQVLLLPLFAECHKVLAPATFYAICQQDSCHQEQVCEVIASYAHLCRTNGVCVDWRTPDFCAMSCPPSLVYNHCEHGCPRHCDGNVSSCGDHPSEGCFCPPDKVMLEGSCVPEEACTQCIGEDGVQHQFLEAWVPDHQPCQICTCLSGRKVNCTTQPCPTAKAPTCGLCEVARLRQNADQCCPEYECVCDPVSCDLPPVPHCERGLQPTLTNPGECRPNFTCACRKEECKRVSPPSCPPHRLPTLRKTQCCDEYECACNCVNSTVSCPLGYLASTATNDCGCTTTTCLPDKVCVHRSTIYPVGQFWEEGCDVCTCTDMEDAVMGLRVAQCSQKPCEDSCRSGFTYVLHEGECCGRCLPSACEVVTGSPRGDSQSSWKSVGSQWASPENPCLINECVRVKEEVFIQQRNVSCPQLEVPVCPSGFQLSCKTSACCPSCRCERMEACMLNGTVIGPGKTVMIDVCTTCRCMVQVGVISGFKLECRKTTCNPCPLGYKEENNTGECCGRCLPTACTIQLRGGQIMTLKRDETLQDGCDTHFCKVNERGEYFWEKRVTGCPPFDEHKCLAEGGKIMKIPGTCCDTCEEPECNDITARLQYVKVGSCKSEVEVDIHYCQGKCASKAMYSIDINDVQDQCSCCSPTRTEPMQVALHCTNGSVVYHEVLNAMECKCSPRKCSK

Data set [2] addresses von Willebrand factor (vWF), A1 domain sites in plasma/blood (Homo sapiens, UniProt P04275 P04275:764-2813). Nature of the data set: free vWF A1 sites activity ELISA, plasma after dosing of healthy volunteers, Emax fit; 0.22 ug/mL; EC90 151 nM. As to conditions: protein: extract. Background: In an ELISA, binding on a coated surface is turned into a signal by an enzyme label.

Sequence of von Willebrand factor (vWF), A1 domain sites in plasma/blood (P04275 764-2813, one chain of several): as above

B1: ARC1779 oligonucleotide core (no PEG) (mixed)
mixed: GCGUGCAGUGCCUUCGGCCGTGCGGTGCCUCCGUCACGC
modifications: same 2'-OMe/deoxy/PS/3'-inverted dT pattern as ARC1779, 5'-OH instead of hexylamine-PEG
In general, Kd refers to the constant that tells how readily two partners part at equilibrium. A high value points to lower affinity. Turning to B1, the Kd in data set [1] is approximately 2 nM.

B2: ARC1779 (mixed)
mixed: B1 mixed
modifications: mGmCmGmUdGdCdAmGmUmGmCmCmUmUmCmGmGmCdCmG-s-dTmGdCdGdGdTmGmCdCmUdCdCmGmUdCmAmCmGmC-3T (m 2'-OMe; d deoxy; s PS; 3T inverted dT), 5'-20 kDa PEG
A word on the EC50: it is the midpoint of the concentration-response curve. Low readings indicate greater potency, high ones weaker potency. With B2, the response in data set [2] was half-maximal at 17 nM (EC50).
